{"source": "paper PMC8561740", "biological_target": "bovine thyroglobulin (natively iodinated) (bovine) (UniProt P01267)", "assay": "cryo-EM structure; single-particle cryoEM; Tg at 7 mg/ml in 10 mM HEPES pH 7.4, 100 mM NaCl with 0.2% (w/v) CHAPS; vitrified at 4°C; C2 symmetry expansion, focused refinements", "data": [{"substance": "bovine thyroglobulin (natively iodinated) (from UniProt P01267 20-2769) (natural protein)", "values": [{"measurement": "stoichiometry N", "result": 2}]}]}
